# B1: TPR t1 (parent)
# chain: GACCAAUCUGCCCUCAGAGCUCGAGAACAUCUUCGGAUGCAGAGGAGGCAGGCUUCGGUGGCGCGAUAGCGCCAACGUCCUCAACCUCCAAUGCAUCCCACCACAUGAUGAUGCCUGAAGAGCCUUGGUUUUUUG
# Variants of: B1
# Experiment: polymerase ribozyme fitness, log enrichment relative to wild type (log ratio); higher = more active; in vitro selection for triplet polymerase activity
# In short: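 Mutant libraries were PCR-built and transcribed for each subunit of a heterodimeric triplet polymerase ribozyme and selected for one round in triplicate at −7 °C, frozen, before gel excision of extended constructs and streptavidin-bead capture. Input and output libraries were Illumina-sequenced, keeping genotypes with ≥10 input reads and ≥1 read per output. Fitness is a logarithmic ratio of genotype to wild-type enrichment, in base 2, using inverse-variance-weighted replicate averages.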
row,Variant,polymerase ribozyme fitness (log ratio)
1,U7A C40U G48U C53G C85A A119U,-0.816
2,A6C G117U U126A U131C,-6.38
3,U7A C12U G113C,-2.14
4,A6U A37U G60U C82G C85G,-2.29
5,A6G C34G C56A C70G G120U,-6.8
6,A6C C56G,-0.703
7,A6G C79U C88G C104U,-1.13
8,A6G C56G G69A C79A,-5.03
9,A6U C20A G61U U125G,-2.23
10,U7A U21C,0.0698
11,A5U U14G U59A C62U,-2.15
12,A6U C22G A26U C104U,-4.49
13,A6G G52U,-1.27
14,A6U A26U G36C G63C,-5.14
15,A6C A24G A37U G48C G69C C79G C85G C101A C124U,-5.82
16,A6G U7G A18C G48U C53A G63A C115A,-1.55
17,A6C A26U C62U,-2.91
18,U7A C12U A43U C49A C114G,-1.69
19,A6G C98U,-1.69
20,A5U G63U G110A,-2.89
21,A6U G44A C56U,-0.291
22,U7C C12A C13A G17A A27C C115U,-5.21
23,A6U G10U C13A C22A C49U G63A,-5.88
24,U7A U38G C49A,-0.102

row,Variant,polymerase ribozyme fitness (log ratio)
1,A6C U38A C53G,-0.826
2,A6C C22G A43C U59A U87C A118G,-5.18
3,A6U G45U G52C C72U G122A,-2.56
4,A6C C12G G52A G63U U106A,-2.76
5,U7C C34U G61U C88A U116A,-5.7
6,A6C A108G U129G,-3.64
7,U7C C62A G110A A119C,-4.23
8,A5U G71C C102G C114G C115G,-6.55
9,U7C C85G U87C,-1.57
10,U7C C31A A119G U133A,-6.12
11,U7A G61C,-1.93
12,A6U C22U G51A,-5.76
13,A6C A29U C56U C94A U112G,-3.35
14,U7A U9C C15A A41U C56U U92G,-1.45
15,A6U G113C,-2.6
16,A6U G113A,-1.07
17,U7A G42A C86U,-1.98
18,A6G C64U C73U G117C,-2.37
19,A6U C15U C31G G51A U54A C73U C115U,-5.8
20,A6G A111U,-2.51
21,U7A G48C C85U G120C,-0.382
22,A6G G10A C20A U112G,-1.35
23,U7A C73A C88G A111U U129G,-6.86
24,U7A G17U G52C C64U C123G,-1.52

row,Variant,polymerase ribozyme fitness (log ratio)
1,A6U A26U C70A G120U,-5.12
2,A6U A50G C123A G128C,-0.104
3,A6C A27G A121C,-0.0909
4,A6U C56G,-0.948
5,A6C G36U G51A U109C C115U,-6.39
6,A6G C22A G48U G110U,-6.03
7,A6G C40G U59A A103U,-6.42
8,A6G C12G A46U A50U C56U C73A,-2.15
9,A6C G35C G57U G58U G60C U81G A111G U125C G135A,-6.83
10,A6C U30C G69A,-5.82
11,U7A G35A U78G,-4.41
12,A6U C12U G110U,-1.97
13,A6U C8G C13U C20U G51A G61U,-4.27
14,A6G A16G G17U A18G G47A G61U,-3.02
15,U7A C56A G65C G71A,-7.51
16,U7C C11G A16G G52U U59G C72U,-0.58
17,A6U A16C,-2.44
18,A6U C53G C82A A83G,-0.829
19,A6C G61C U92C,-4.76
20,A6U G23A G69C C115A U126A U131G,-6.34
21,A6U C70A,-0.922
22,U7A C101A,-1.43
23,A6G G51A,-2.27
24,A6C G47A C62U C86U U133G,-0.219

row,Variant,polymerase ribozyme fitness (log ratio)
1,A6C C12A,-1.61
2,A6G C72A,0.991
3,A6G C72U,0.164
4,U7C C8G,-0.253
5,A6U G69A C124A,-1.22
6,A6U A16U A46C C56G,-2.72
7,A6U C86U C89G,-1.63
8,A6C C22A U87C G113C,-5.35
9,U7C C62U,-1.11
10,A6G A41C G57U G60A A100U,-2.82
11,U7C A18C U78C C82U,-1.52
12,A6U A84U G110U,-1.45
13,A6G C8A U125A,0.146
14,U7A A50U G57A A83U,-1.44
15,U7A C13U A41U C82A G127A,-2.71
16,A6G C11A U109G A119C C123G U125C,-5.22
17,U7A U21A G61C C114G,-5.5
18,A6U G110U,-1.36
19,A6G C8G C11U C22U C79U,-3.56
20,U7A G60U U112A,1.29
21,A6U A27U G63A A121G U130A,-2.41
22,U7C A66U U106C,-1.58
23,U7C C13U G60A A105U,-1.71
24,A6G A90G U112A,1.69

row,Variant,polymerase ribozyme fitness (log ratio)
1,A6C A41U A43G G57U U130G,-3.78
2,A6C C72A,-1.05
3,A6C C72U,-0.203
4,A6U U30C,-2.71
5,A5U G63C G117A,-3.54
6,A6C C11G C15U C102A G120A U133A,-2.14
7,U7A G17U G117A A118G,-2.58
8,A6U G57C G63A A90G,-0.878
9,U7A C13G U32C U38G G63C,-2.61
10,U7A A105U C115U,-3.4
11,A5U U9G C62A,-0.961
12,A6U C12A G61U,0.0933
13,A6G C31A G42U C53U A95U C101U C114U U126A,-5.71
14,U7C C8G C12U G19C G63A A66U C115A G128C,-4.6
15,U7C A83G A84C,-1.08
16,A6C C13A C88A,-3.16
17,A6C C40A C53G C99U U109A U112G,-5.56
18,A6G G44C U112C,0.311
19,U7C C97U C114A,-1.45
20,A6C A18U,-2.13
21,A5U U9G G47A G52U,-1.96
22,A6U C12U U81C,-0.545
23,U7C A91U C94G,-2.67
24,U7A U9C C12U G57C,0.0479

row,Variant,polymerase ribozyme fitness (log ratio)
1,U7A C11A C101U G122U,0.139
2,A6C G61U U87A,-0.857
3,A6C A29U G52U C53U G63U G120A C123U,-3.79
4,A6U C15A A37C C40G C80U U96G,-2.51
5,A6G G71A C101A,-3.04
6,U7A U81G G122A,-5.92
7,A6U G60A C82G C101U G120A G128U,-2.36
8,U7A C34A G61U C97U,-2.06
9,A6C G10A C13A A75G U125G,-0.518
10,A6U C8A,0.618
11,A6C U9G G57U G113U G128U,-3.88
12,A6G C72A C79A C102U A118U,-2.3
13,A6C U133A,-0.897
14,A5U U38A G42U C72U A74U C85A C101A,-5.64
15,A6C C11U G61U G113U,-4.99
16,A6U C15G U33A G63A G93A G113U,-6.39
17,A6C G52A C79U U87A,-0.58
18,A6U C15G U59G,-2.42
19,A6C G10A U33A C49A A121U,-2.86
20,U7C A18U C53U G60U G61U,-4.77
21,A6C G61U U78C A100U G120A U131C,0.181
22,A6G U14G G58A,-0.642
23,A6U G60U C64U A91G C102G G110U,-7.78
24,A6G U112A U125G U129A,-1.7

row,Variant,polymerase ribozyme fitness (log ratio)
1,A6C C85G U92A U112G,-6.59
2,A6U C15A C56A A75G A105C,-4.99
3,U7A C53U U59G G60U C72G,-0.651
4,U7A U21G A75G,-1.8
5,U7A C8A A37G U59G C62U C88U G113C,-3.69
6,U7C A27G U92A,-3.82
7,U7A G39A G52A,0.0728
8,A6U A27G C79U A111C,-4.62
9,A6G C72G C89U,-0.661
10,A6U G69U,0.777
11,U7A C15G C88U C124U,0.702
12,A6G U30C G63A A111U G127C,-5.37
13,U7A C72A,-0.427
14,A6G G60U U78C C104A U109A,-5.54
15,A6U U55C C76U,-0.164
16,A6U C94A U96G,-3.1
17,A6U C8A U129A,-1.48
18,A6G G39U,-0.397
19,U7A G57A,-0.474
20,A6U A26U,-3.54
21,A5U U112A A118U U125C,0.369
22,A6U A26U C34A A43U A121C,-7.38
23,A6C G47A,0.295
